Reference: patent US20120003668A1, “HIGH RESOLUTION COMPLEX STRUCTURE AND ALLOSTERIC EFFECTS OF LOW MOLECULAR WEIGHT ACTIVATORS ON THE PROTEIN KINASE PDK1” (UNIVERSITAET DES SAARLANDES, priority 2008, published 2012)
Substitutions are numbered along the chain they refer to.

What was measured:
PDK1[Phe224Trp] = target: T1, PDK1[Phe224Trp] (Homo sapiens, UniProt O15530, F224W); test: PDK1 protein kinase activity test with T308tide substrate, Phe224Trp mutant; type: biochemical; settings: PDK1 CD 50-359, T308tide as substrate
T1 construct: The catalytic domain (CD) of PDK1 50-359 and its mutants Phe224Trp and Thr226Trp were expressed in insect cells and purified; made in house; host or cells: insect cells
T1 sequence (O15530 50-359 F224W): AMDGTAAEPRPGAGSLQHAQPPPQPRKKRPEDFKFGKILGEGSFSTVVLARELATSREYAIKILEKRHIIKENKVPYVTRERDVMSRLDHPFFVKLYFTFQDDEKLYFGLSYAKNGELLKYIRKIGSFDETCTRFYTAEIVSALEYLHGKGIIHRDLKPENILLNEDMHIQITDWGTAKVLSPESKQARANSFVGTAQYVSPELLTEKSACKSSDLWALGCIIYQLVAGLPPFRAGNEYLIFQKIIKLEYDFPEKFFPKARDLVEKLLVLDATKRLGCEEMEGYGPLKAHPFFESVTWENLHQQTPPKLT
Description: (§1) Protein kinase activity tests: PDK1 activity tests were performed essentially as previously described (Biondi, R. M. et al., Embo. J. 20:4380-4390 (2001); Balendran, A. et al., J. Biol. Chem. 275:20806-20813 (2000); Biondi, R. M. et al., Embo. J. 19:979-988 (2000)) using T308tide as a substrate for PDK1. In brief, PDK1 activity assay was performed at room temperature (22° C.) in a 20 μl mix containing 50 mM Tris pH 7.5, 0.05 mg/ml BSA, 0.1% β-mercaptoethanol, 10 mM MgCl2, 100 μM [γ^32P]ATP (5-50 cpm/pmol), 0.003% Brij, 150 ng PDK1, and T308tide (from 0.1 to 1 mM). When appropriate, the PDK1 activity assay was performed in a 96 well format and 4 μl aliquots spotted with on p81 phosphocellulose papers (Whatmann) using ep motion 5070 (Eppendorf), washed in 0.01% phosphoric acid, dried, and then exposed and analysed using PhosphoImager technology (Typhoon, GE Healthcare). Activity measurements were performed in duplicates with less than 10% difference between pairs. Experiments were repeated at least twice. PDK1 specific activity at 22° C. was approximately 0.25 U/mg when the substrate concentration was 0.1 mM T308tide. […]

PDK1[Thr226Trp] = target: T2, PDK1[Thr226Trp] (Homo sapiens, UniProt O15530, T226W); test: PDK1 protein kinase activity test with T308tide substrate, Thr226Trp mutant; type: biochemical; settings: PDK1 CD 50-359, T308tide as substrate
T2 construct: The catalytic domain (CD) of PDK1 50-359 and its mutants Phe224Trp and Thr226Trp were expressed in insect cells and purified; made in house; host or cells: insect cells
T2 sequence (O15530 50-359 T226W): T1 sequence (O15530 50-359 F224W) with W175F, T177W
Description: as §1

PDK1 catalytic domain = target: T3, PDK1 catalytic domain (Homo sapiens, UniProt O15530); test: TNP-ATP fluorescence probing of the ATP binding site conformation; type: biochemical; settings: 40 μM TNP-ATP, 15 μM PDK1 catalytic domain
T3 construct: The catalytic domain (CD) of PDK1 50-359 and its mutants
T3 sequence (O15530 50-359): T1 sequence (O15530 50-359 F224W) with W175F
From the text: Probing the conformation of the ATP binding site in PDK1: The activation of PDK1 by HM-polypeptides and small compounds is due to a change in the conformation of the enzyme. We probed the conformation of the ATP binding site in PDK1 by scanning the steady-state fluorescence of TNP-ATP/PDK1, in the presence or absence of P-HM-polypeptides, PIFtide, or small molecular weight compounds. Data were obtained in a Varian Cary Eclipse spectrofluorometer (excitation λ=479 nm; emission scanning, λ=500-600 nm; excitation slit=10 nm; emission slit=10 nm) at a rate of 200 nm/min, with 150 datapoints/100 nm scanning and 0.3 s averaging time. The incubation was performed at 20° C. in a buffer containing 50 mM Tris pH 7.5, 0.1 mM EDTA, 187 mM NaCl, 40 μM TNP-ATP, 15 μM PDK1 catalytic domain, 1 mM DTT and 1% DMSO. In the absence of PDK1, TNP-ATP produced approximately 1.5 arbitrary units (a.u.) of fluorescence, and the inclusion of PDK1 increased its fluorescence intensity to approximately 3.3 a.u. […] In preliminary tests, inclusion of 2.5 mM MgCl2 in the assay mix produced similar results. Data for each condition are the average of 3 scans.

[1] = target: T4, PDK1 50-359 [Y288G;Q292A] (Homo sapiens, UniProt O15530, Q292A/Y288G); test: Amide 1H/2H exchange and mass spectrometry
T4 sequence (O15530 with tags, fused parts or gaps Y288G/Q292A): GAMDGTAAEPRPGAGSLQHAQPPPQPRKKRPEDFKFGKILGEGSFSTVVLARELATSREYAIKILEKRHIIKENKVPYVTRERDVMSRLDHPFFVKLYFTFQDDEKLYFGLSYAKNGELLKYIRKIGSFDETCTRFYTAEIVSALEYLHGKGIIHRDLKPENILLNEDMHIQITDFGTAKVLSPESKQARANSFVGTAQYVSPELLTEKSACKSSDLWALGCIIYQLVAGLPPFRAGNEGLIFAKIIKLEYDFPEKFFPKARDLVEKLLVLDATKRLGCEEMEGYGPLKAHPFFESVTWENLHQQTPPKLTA
Description: For local exchange analysis, the labeled proteins were digested with pepsin and the resulting polypeptides analyzed by tandem mass-spectrometry (LC-MS/MS) for their incorporation of deuterium atoms. The graphics represent the number of deuterium atoms incorporated into each polypeptide upon the stated incubation time in deuterated water. […] Over time, amide hydrogen atoms exchanged for deuteriums and the molecular weight of the protein increased. We repeated the ^1H/^2H exchange experiments at four different incubation times: 1, 5, 15 and 45 minutes. […] In the presence of peptide or small compounds, protein and ligand solution were pre-incubated on ice for 50 min before the mixture was diluted into labeling buffer. After the exchange reaction, samples were loaded on a pepsin column for one minute for digestion into peptides and samples quenched at each time point. They were then subjected to liquid chromatography for separation and analyzed by tandem mass-spectrometry (LC-MS/MS) for their incorporation of deuterium atoms. The entire plumbing system was immersed in an ice bath. 61 polypeptides were identified with overlapping regions, covering 80% of PDK1 sequence. As it is not possible to predict the cleavage sites of pepsin in the PDK1 sequence, it was necessary to identify the peptides generated by pepsin digestion for local-exchange analysis.

- effect on TNP-ATP fluorescence intensity in the presence of PDK1 (PDK1 catalytic domain): decreased
- global exchange protection, 2H less incorporated/PDK1 molecule ([1]; after 45 minutes, PIFtide 0.625 mM, PS48 500 μM, PS08 250 μM): 20 ^2H
- 2H less incorporated (protection), peptide 122-134 (α-C-helix) ([1]; first time point (1 min)): five
Sequence: REPRILSEEEQEMFRDFDYIADWC [PIFtide]
- activation of PDK1[Phe224Trp] (PDK1[Phe224Trp]): activated
- activation of PDK1[Thr226Trp] (PDK1[Thr226Trp]): not activated
